Patent publication US20260242478A1 (published 2026)

Key:
[1] = molecular target: T1, Anti-CD28 Fab (SEQ ID NOs: 696, 697); test: phage binding ELISA on captured Fab; competitor: CD28 antigen pre-incubated in the wells
T1 construct: Biotinylated and captured on neutravidin coated plates in the phage ELISA
T1 sequence (VH, as listed by the source, chain 1 of 2): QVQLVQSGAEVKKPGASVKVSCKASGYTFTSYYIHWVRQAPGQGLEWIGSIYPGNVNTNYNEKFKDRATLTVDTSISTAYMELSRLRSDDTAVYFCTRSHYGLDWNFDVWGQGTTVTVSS
T1 sequence (VL, as listed by the source, chain 2 of 2): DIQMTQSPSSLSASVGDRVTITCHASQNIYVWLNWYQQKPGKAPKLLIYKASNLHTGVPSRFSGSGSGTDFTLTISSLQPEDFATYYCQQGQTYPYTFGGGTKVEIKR
Description: (§1) After panning, phage infected bacteria were plated out and colonies picked into 96 well blocks. Clonal phage was then amplified and separated from bacterial cells via centrifugation.
(§2) Clonal phage were harvested as crude supematants and screened via standard ELISAs. […] Prior to the addition of clonal phage, wells were incubated with blocking buffer and CD28 antigen or blocking buffer alone. Without washing or aspirating, clonal phage supematants were then added to the wells and incubated for a short time. Wells were then washed followed by detection of bound phage using a horse radish conjugated anti-M13 antibody. Clonal phage of interest were then sent for sequence analysis.

[2] = molecular target: Anti-CD28 Fab (SEQ ID NOs: 696, 697); test: phage binding ELISA on Fab coated plate; CD28 antigen as competitor
Target sequence in this assay (VH, as listed by the source, chain 1 of 2): as the sequence (VH, as listed by the source, chain 1 of 2) above
Target sequence in this assay (VL, as listed by the source, chain 2 of 2): as the sequence (VL, as listed by the source, chain 2 of 2) above
Description: as §1, §2

[3] = molecular target: Anti-CD28 Fab (SEQ ID NOs: 696, 697); test: phage binding ELISA; biotinylated Fab on neutravidin plate, anti-M13 HRP detection
Target sequence in this assay (VH, as listed by the source, chain 1 of 2): as the sequence (VH, as listed by the source, chain 1 of 2) above
Target sequence in this assay (VL, as listed by the source, chain 2 of 2): as the sequence (VL, as listed by the source, chain 2 of 2) above
Description: as §1, §2

[4] = molecular target: T2, Anti-CD28 Fab (SEQ ID NOs: 696, 697); test: phage ELISA on captured anti-CD28 Fab, wells pre-incubated with CD28 antigen as competitor;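 further: crude clonal phage supernatants added without washing, bound phage read out by HRP-coupled anti-M13 antibody, reference wells given blocking buffer only instead of CD28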
T2 construct: In the phage ELISA the Fab was biotinylated and captured on neutravidin coated plates
T2 sequence (VH, as listed by the source, chain 1 of 2): as the sequence (VH, as listed by the source, chain 1 of 2) above
T2 sequence (VL, as listed by the source, chain 2 of 2): as the sequence (VL, as listed by the source, chain 2 of 2) above

[5] = molecular target: T2, Anti-CD28 Fab (SEQ ID NOs: 696, 697); test: phage ELISA, clonal phage on biotinylated anti-CD28 Fab captured on neutravidin plates;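 further: crude clonal phage supernatants added to wells pretreated with CD28 antigen or with blocking buffer only, bound phage detected by HRP-linked anti-M13 antibody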
[6] = molecular target: T3, Anti-CD28 Fab (SEQ ID NOs: 696, 697); test: phage ELISA; biotinylated anti-CD28 Fab on neutravidin plate, clonal phage supernatant, anti-M13 HRP detection;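 further: crude supernatants of single phage clones picked after panning were screened for binding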
T3 construct: In the phage ELISA the Fab was biotinylated and captured on neutravidin coated plates
T3 sequence (VH, as listed by the source, chain 1 of 2): as the sequence (VH, as listed by the source, chain 1 of 2) above
T3 sequence (VL, as listed by the source, chain 2 of 2): as the sequence (VL, as listed by the source, chain 2 of 2) above

[7] = molecular target: T3, Anti-CD28 Fab (SEQ ID NOs: 696, 697); test: phage ELISA as above with wells pre-incubated with CD28 antigen as competitor
Description: as §1, §2

[8] = molecular target: T4, Anti-CD28 Fab (SEQ ID NOs: 696, 697); test: phage ELISA; clonal phage on plate-captured biotinylated anti-CD28 Fab, anti-M13 HRP detection
T4 construct: Biotinylated and captured on neutravidin coated plates in the phage ELISA
T4 sequence (VH, as listed by the source, chain 1 of 2): as the sequence (VH, as listed by the source, chain 1 of 2) above
T4 sequence (VL, as listed by the source, chain 2 of 2): as the sequence (VL, as listed by the source, chain 2 of 2) above
Description: as §1, §2

[9] = molecular target: T4, Anti-CD28 Fab (SEQ ID NOs: 696, 697); test: phage ELISA; clonal phage on plate-captured anti-CD28 Fab pre-incubated with CD28 antigen as competitor
Description: as §1, §2

Binder	Anti-CD28 Fab signal in the presence of CD28 [2]	Anti-CD28 Fab (SEQ ID NOs: 696, 697) signal [3]	Anti-CD28 Fab signal (phage binding ELISA) [6]	Anti-CD28 Fab signal in the presence of CD28 (phage binding ELISA) [7]	further results
YCDGHLALHMKKCL (tested as crude clonal phage supernatant) [Phage-1019 (Peptide-87 library peptide, SEQ ID NO: 1335)]	–	–	–	–	Anti-CD28 Fab signal in the presence of CD28 (phage binding ELISA) [1]: 0.08
YCEGHVLEYRGKCD [Phage-1026]	0.09	1.48	–	–	–
YCAGHTVENMAKCL [Phage-1025]	0.07	1.48	–	–	–
YCDGHKAEYMQKCL (tested as crude clonal phage supernatant) [Phage-1015 (Peptide-87 library peptide, SEQ ID NO: 1331)]	–	–	–	–	Anti-CD28 Fab signal in the presence of CD28 (phage binding ELISA) [1]: 0.06
YCLGHSWPYIHKCY [Phage-1052]	–	–	–	–	Anti-CD28 Fab signal in the presence of CD28 (phage binding ELISA) [4]: 0.07; Anti-CD28 Fab signal (phage binding ELISA) [5]: 1.43
YCDGHLAIYMWKCL (Tested as clonal phage supernatant) [Phage-1037]	–	–	1.45	0.09	–
YCEGHLDQYMTKCL [Phage-1028]	0.08	1.47	–	–	–
YCDGHLLEYMSKCL [Phage-1032]	0.09	1.46	–	–	–
YCEGHLPQYMTKCI (Tested as clonal phage supernatant) [Phage-1040]	–	–	1.44	0.08	–
YCEGHAVEYMAKCL (Tested as clonal phage supernatant) [Phage-1043]	–	–	1.44	0.07	–
YCEGHSMEYIQKCL (Tested as clonal phage supernatant) [Phage-1045]	–	–	1.44	0.07	–
YCDGHSLQYMSKCL (Tested as clonal phage supernatant) [Phage-1039]	–	–	1.45	0.06	–
YCEGHTPVYMPKCL [Phage-1035]	0.06	1.46	–	–	–
YCEGHSLEHIAKCL [Phage-1034]	0.07	1.46	–	–	–
YCDGHSLEYMVKCL [Phage-1033]	0.06	1.46	–	–	–
YCDGHAEEYMAKCL (Tested as clonal phage supernatant) [Phage-1038]	–	–	1.45	0.06	–
YCAGHLPQYIQKCL (Tested as clonal phage supernatant) [Phage-1041]	–	–	1.44	0.07	–
YCDGHLPEYMNQCL (Tested as clonal phage supernatant) [Phage-1047]	–	–	1.44	0.07	–
YCAGHLEEYMWKCL (tested as crude clonal phage supernatant) [Phage-1009]	–	–	–	–	Phage binding ELISA, Anti-CD28 Fab signal [8]: 1.51; Phage binding ELISA, Anti-CD28 Fab signal in the presence of CD28 [9]: 0.08

Binder	Anti-CD28 Fab signal in the presence of CD28 [2]	Anti-CD28 Fab (SEQ ID NOs: 696, 697) signal [3]	Anti-CD28 Fab signal (phage binding ELISA) [6]	Anti-CD28 Fab signal in the presence of CD28 (phage binding ELISA) [7]	further results
YCVGHLPQYMQKCL [Phage-1049]	–	–	–	–	Anti-CD28 Fab signal in the presence of CD28 (phage binding ELISA) [4]: 0.06; Anti-CD28 Fab signal (phage binding ELISA) [5]: 1.43
YCDGHHKEYLLKCL (tested as crude clonal phage supernatant) [Phage-1018 (Peptide-87 library peptide, SEQ ID NO: 1334)]	–	–	–	–	Anti-CD28 Fab signal in the presence of CD28 (phage binding ELISA) [1]: 0.06
YCDGHLAIYIGKCL [Phage-1030]	0.08	1.47	–	–	–
YCAGHTQEYIEKCL [Phage-1029]	0.06	1.47	–	–	–
YCEGHLPIYMEKCL (Tested as clonal phage supernatant) [Phage-1044]	–	–	1.44	0.07	–
YCEGHRPEYMQKCV [Phage-1024]	0.09	1.48	–	–	–
YCEGHSAMYIWKCL (tested as crude clonal phage supernatant) [Phage-1008]	–	–	–	–	Phage binding ELISA, Anti-CD28 Fab signal [8]: 1.52; Phage binding ELISA, Anti-CD28 Fab signal in the presence of CD28 [9]: 0.1
YCDGHNFQYMEKCL (Tested as clonal phage supernatant) [Phage-1048]	–	–	1.44	0.06	–
YCDGHSLEYIEKCL [Phage-1051]	–	–	–	–	Anti-CD28 Fab signal in the presence of CD28 (phage binding ELISA) [4]: 0.06; Anti-CD28 Fab signal (phage binding ELISA) [5]: 1.43
YCDGHVAEYRHKCL [Phage-1027]	0.06	1.47	–	–	–
YCDGHLEIYMSKCL [Phage-1031]	0.08	1.46	–	–	–
YCDGHLPEYIAKCQ [Phage-1050]	–	–	–	–	Anti-CD28 Fab signal in the presence of CD28 (phage binding ELISA) [4]: 0.07; Anti-CD28 Fab signal (phage binding ELISA) [5]: 1.43
YCQGHIEPYLAKCL (Tested as clonal phage supernatant) [Phage-1036]	–	–	1.46	0.05	–
YCEGHSQEYMAKCL (Tested as clonal phage supernatant) [Phage-1046]	–	–	1.44	0.06	–
YCDGHSAEYLSKCL (tested as crude clonal phage supernatant) [Phage-1011 (Peptide-87 library peptide, SEQ ID NO: 1327)]	–	–	–	–	Anti-CD28 Fab signal in the presence of CD28 (phage binding ELISA) [1]: 0.07
YCDGHLPEYITKCL [Phage-1023]	0.06	1.49	–	–	–
YCSGHLPQYLEKCL (tested as crude clonal phage supernatant) [Phage-1017 (Peptide-87 library peptide, SEQ ID NO: 1333)]	–	–	–	–	Anti-CD28 Fab signal in the presence of CD28 (phage binding ELISA) [1]: 0.31
YCDGHSPQYIQKCL (tested as crude clonal phage supernatant) [Phage-1016 (Peptide-87 library peptide, SEQ ID NO: 1332)]	–	–	–	–	Anti-CD28 Fab signal in the presence of CD28 (phage binding ELISA) [1]: 0.07
YCEGHLAIYQKKCL (Tested as clonal phage supernatant) [Phage-1042]	–	–	1.44	0.06	–
